Laboratory results published in the supplement of paper PMC12764529.
± gives the half width of the 95% confidence interval.

Tests used:
[1] = folding stability dG unfold from trypsin proteolysis; higher = more stable
Description: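 Folding stability of de novo designed mini-proteins (<80 aa, no Cys; designed by TrROS, TrMRF, ProteinMPNN and the joint model) was measured by cDNA display proteolysis with trypsin and chymotrypsin. Each protease was used at 11 concentrations in a threefold dilution series plus a no-protease condition. K50 was inferred by Bayesian fitting of sequencing counts, and dG unfold was derived against a sequence-predicted unfolded-state K50 (Tsuboyama et al. method). Sequences shown include variable-length N-terminal GS-type padding (SAGGSAGG...) inside a display construct carrying a PA tag. Rows were kept only if the AF2 dimer inter-PAE was >15, to exclude likely homo-oligomers.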

[2] = folding stability dG unfold (combined trypsin and chymotrypsin); higher = more stable
How it was run: (§1)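 Unfolding free energy was derived, per protease or combined, against a sequence-predicted unfolded-state K50 and a shared folded-state K50, starting from K50 inferred by Bayesian fitting of sequencing counts. Digestion with trypsin and chymotrypsin was carried out on designed mini-proteins under 80 residues without cysteine in a PA-tagged cDNA display construct. Only designs with AlphaFold2 dimer inter-PAE above 15 were kept.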

[3] = folding stability dG unfold from chymotrypsin proteolysis; higher = more stable
How it was run: as §1

Sequence | folding stability dG unfold [1] | folding stability dG unfold [2] | folding stability dG unfold [3]
SAGGSAGGSAGGIEELAKKYPNIKIVEVKTVKVTETNKDGKKTEKTKTEIKIYKDGEEISAGGSAGGSAGGS [r10_0_TrROS_Hall] | -0.0124 ± 0.2 kcal/mol | < -1 kcal/mol | 
SAGGSAGGSALSPDDVEPIDEEPFHNPGGNPMNIGIWKNPDDGKPFIRNPGNGNPFPADDLSAGGSAGGSAG [r3_181_TrROS] | -0.498 ± 0.12 kcal/mol | < -1 kcal/mol | 
SAGGSAGGEPRELEAEVEVIEFPPTGVALAVIRVNDGAEPRLIPVPFDAPEDVTPEELAKKILGSAGGSAGG [r6_20_TrMRF] | -0.826 ± 0.63 kcal/mol | < -1 kcal/mol | 
AAVIPTPTAEPVKVETLSTEVSPSLFPSPAAGGPRVLRTVVTTKTTVAVQTEDAWVEVETTTTTTEVLPPES [r1_112_JUSTAS] | -0.546 ± 0.21 kcal/mol | < -1 kcal/mol | 
SAGGSAGGMVTVELPGLPTPEEARARAEEVVAAIVAAGHPGEEVTLTVVYPGSGAAETFTVPLASAGGSAGG [r6_238_JUSTAS] | 0.225 ± 0.059 kcal/mol | -0.328 ± 0.22 kcal/mol | 
SPIILPGASTVTINATVTVEPRDPATGTVLSSRDLPVPVTVTTNADGTVTITVDVPADVPADAAVTVDLTSA [r9_90_JUSTAS] | 0.239 ± 0.018 kcal/mol | -0.338 ± 0.1 kcal/mol | 
SAGGSAGGSAGLNITYTTTITYPDGTVVTEPVVSSGSLEEAIARARELEKKHPNVEVEVSPEGSAGGSAGGS [r12_268_JUSTAS] | 0.396 ± 0.079 kcal/mol | -0.113 ± 0.23 kcal/mol | 
SAGGSADSVMIPVESPEEIKEELQEGPPKRVELPNPDGERYWIQIDWDDPENIEVMPPDDPEKMKPSAGGSA [r15_11_TrROS] | 0.716 ± 0.13 kcal/mol | 0.0877 ± 0.28 kcal/mol | 
SKEILEAEVEEILKLLPESLKPDVPRELVFPGVKITVTKYEPVDKNKGGKKPTTVVTIELPEGPVTIPLPSA [r9_279_JUSTAS] | 0.548 ± 0.034 kcal/mol | -0.531 ± 0.18 kcal/mol | 
SAGGSAGGSMKPEVVEEIIKKAEEEGYEIDSVTVNPETNVPVIHFNWPSPELAEKDPELREAASAGGSAGGS [r12_482_TrMRF] | 0.13 ± 0.12 kcal/mol | < -1 kcal/mol | 
SAGGSAGGSAGGSAVERIIKEMREKFPPGKEVEIPIEVRTDNGNYVPIEIEFRIPPDQPSAGGSAGGSAGGS [r10_11_TrROS] | -0.557 ± 0.4 kcal/mol | < -1 kcal/mol | 
SAGGSAGGKIEIVIEGLSEEEVEALAKELRDAGLEIEVTVVPPPAPPPLTAEELAKNPEALKALSAGGSAGG [r6_804_TrROS_Hall] | 0.714 ± 0.053 kcal/mol | 0.02 ± 0.26 kcal/mol | 
SAGGSAGGSPRYQIPFEFPNGRNLYIQIERDPEEGQVKVDIMFPDGGTKEITVPPGEEIKIPWSAGGSAGGS [r12_922_TrROS] | -0.659 ± 0.62 kcal/mol |  | 
SAGGSAGGSPPESRPFTTDPGPSGEYTAKLLPPDGSSEEVVLPVSQPRTLNVPKDWSFEVLPPSAGGSAGGS [r12_517_JUSTAS] |  | -0.338 ± 0.12 kcal/mol | 0.157 ± 0.11 kcal/mol
SAGGSAGGSAGGSMTRVFVRKPDYWLEVEEYPDPKNPDRIRLTVKKKIPLSEVTPEELASAGGSAGGSAGGS [r4_316_JUSTAS] | -0.0403 ± 0.26 kcal/mol |  | 
SAGGSAGGSAGGSSMKEVTLYVPPGTLDPAVVEKLREEGVKVTVVPVPLSREPDGPPVASAGGSAGGSAGGS [r4_294_JUSTAS] |  | 0.0503 ± 0.38 kcal/mol | 0.965 ± 0.17 kcal/mol
SAGGSETLELTIEIPGLGQPVSARSTSFDPEKGLWTAEMKSPVPGLRRTLTYDPVTGTVSSTTTLLSAGGSA [r2_147_JUSTAS] |  | 0.108 ± 0.13 kcal/mol | 0.341 ± 0.13 kcal/mol
SAGGSAITLEDIRNMPIEEIAKEMQDHFPNGQKQPIEFEYPDGRKLRIKAEYPPNGEPKIDIEPVDSAGGSA [r15_857_TrROS] |  | < -1 kcal/mol | 0.139 ± 0.14 kcal/mol
SAGGSAGGSASLSLDQVGTVTFPANGAPALVTRLPDGSVALYFPATGRVLYLDGPNDVTPDSAGGSAGGSAG [r3_96_TrMRF] |  | 0.552 ± 0.075 kcal/mol | 0.97 ± 0.059 kcal/mol
SAGGLTTQETVSLTSPTNVALTVLSTSVTLSPSTRTLSYTVQGPDGTVTTETVVTPAPLPELDPSAGSAGGS [r16_132_JUSTAS] |  | -0.159 ± 0.15 kcal/mol | 0.346 ± 0.15 kcal/mol
SAGGTIKGLPVEEIKDEIRDLFPDHPMKVDIEPIDEDEGYVRVEIEPPRPNGKTQRQEHTIPIRPDDSAGGS [r16_564_TrROS] |  | -0.64 ± 0.58 kcal/mol | -0.579 ± 0.14 kcal/mol
SMEPPVPKIKARLVEVREEGERPRALFEIEEIEDAPPEIEELFKRGAKIEVEIPPDYPLKEDEEIEVDPLSA [r9_557_TrMRF] |  | 0.0252 ± 0.28 kcal/mol | 0.622 ± 0.15 kcal/mol
SAGGSAGGSELPPGPYLVTIPADPEPVVAPATFAPDGTVRVRVPEPGEEITIPRDQAEIFPVESAGGSAGGS [r12_782_JUSTAS] |  | -0.0148 ± 0.28 kcal/mol | 0.944 ± 0.058 kcal/mol
SATKTINFDEFNDMMNQGDPPMLRHIIKEAREKDPDKEITIRMPKNPMFRDYIKEAFKEEGYPVKITPHSAG [r14_236_TrROS] |  | < -1 kcal/mol | -0.494 ± 0.36 kcal/mol

Sequence | folding stability dG unfold [1] | folding stability dG unfold [2] | folding stability dG unfold [3]
SAGGSAGGSAGAVTVTVDAAPDPLPDREYVVVTVERTLPSGEVLAESRVFDRAEEALEAASAGGSAGGSAGG [r11_792_TrMRF] |  | -0.209 ± 0.26 kcal/mol | 0.432 ± 0.14 kcal/mol
SAGGSAGGSAGGEVITVKRPDGTPFDVTAVLSEDPVVPLLTVEATDDGPVVTLDVPASLLSAGGSAGGSAGG [r7_236_JUSTAS] |  | -0.172 ± 0.26 kcal/mol | 0.207 ± 0.16 kcal/mol
SAGGSAGGSAGGDPIRVDDIEPNPDRLEIDIRNFGNGNQKKHTIPPGSPPKIKPGDYIRSAGGSAGGSAGGS [r10_834_TrROS] |  | 0.229 ± 0.26 kcal/mol | 0.857 ± 0.12 kcal/mol
SAGGSAGGSAGGMIIVPVVTEETVDVTFRKTPEGVWEPVGPQTITTTTTLTIDPTKGRLSAGGSAGGSAGGS [r10_93_JUSTAS] |  | -0.443 ± 0.37 kcal/mol | 0.135 ± 0.43 kcal/mol
SAGGSAGGSAGGAKPVTFTFPDGTKAVSVEETPTSVVLYDPGPGALYVLDKETKTITPASAGGSAGGSAGGS [r10_289_TrMRF] |  | -0.72 ± 0.34 kcal/mol | -0.512 ± 0.29 kcal/mol
SAGGSAGGSAGYPPVPPAVVQAVVDELPRLGYTPKAVVVGEGPDLPFVLVVADDKVLLVRGSAGGSAGGSAG [r3_395_TrMRF] |  | -0.379 ± 0.14 kcal/mol | 0.524 ± 0.096 kcal/mol
SAGTVTSSTTPLPDGSLLSTTTTTSPVSGTSVTTSTTTTTPVTPTTPPPPPRPVYPRYYDGVTEPALSLSAG [r5_169_JUSTAS] |  | -0.639 ± 0.18 kcal/mol | -0.12 ± 0.068 kcal/mol
SAGGSAGGSAGAPSAPRSVPEVRLLNIDIPASADDPESVELARRLARAALENDAVVVINESAGGSAGGSAGG [r11_519_TrMRF] |  | 0.268 ± 0.11 kcal/mol | 0.826 ± 0.11 kcal/mol
SAGGMKKITIPMKVLEEKFGIPKNTSPEELAKKLNPKEKVEVLSVTSEKSENGEENPTVTVLVIPPKESAGG [r13_723_TrMRF] |  | -0.22 ± 0.15 kcal/mol | 0.0873 ± 0.14 kcal/mol
SAGGSAGMPRLVEIEVPLPPDAKDPEIKEKIIKTPEGYEYKTIKETSDPSPSSLRKIIMEKKPLKKSAGGSA [r15_852_JUSTAS] |  | < -1 kcal/mol | -0.197 ± 0.99 kcal/mol
SAGGSAGGMTIPLPGSVEEIQELLGGPIKEYTEEAPGSGTLTLPNGTPITVERESPELLKEVLRSAGGSAGG [r6_19_JUSTAS] |  | -0.593 ± 0.37 kcal/mol | -0.0581 ± 0.16 kcal/mol
SAGGSMKDIPAEEIAKLFAAKLGYPILDAKVEKNPVKPVYKLYIVVEEKNPGKKFPREITIPSELLSAGGSA [r2_156_TrMRF] |  | -0.0499 ± 0.22 kcal/mol | 0.196 ± 0.25 kcal/mol
SAGGSAGGSAGMLKTIVIKELTPEAKKALLENPDLPEDAEVPTLVEELTVPVKRTPKGLVSAGGSAGGSAGG [r17_194_JUSTAS] |  | -0.398 ± 0.13 kcal/mol | -0.0656 ± 0.077 kcal/mol
SAGGSAGGSMLRVEVTLENGEKIEVEIEVPPGEELTLDEILAELKEKYPDLKVTEIKIEFLEPSAGGSAGGS [r12_262_TrROS_Hall] |  | 3.27 ± 0.28 kcal/mol | 2.63 ± 0.22 kcal/mol
SAGGSAGGSAGGSGMEEIEEKMKKGYTFTVTSSSPNKTYTIKPEEVSKFKDESISVKAESAGGSAGGSAGGS [r4_157_JUSTAS] |  | < -1 kcal/mol | -1.4 ± 0.84 kcal/mol
SAGGTATVEAALAALPADLPRGSLALHPETGLVEPLEPSPEDAVAYPVNPATGERYPLRVEADAVRLLSAGG [r13_803_JUSTAS] |  | -0.517 ± 0.15 kcal/mol | 0.461 ± 0.079 kcal/mol
SAGGSAGGSAGPPGEPVRIKLKFPNGNPIEIPGKLDDAEEIAEELQSEGFPFSKVEVEKWSAGGSAGGSAGG [r11_946_TrROS] |  | -0.603 ± 0.51 kcal/mol | -0.257 ± 0.49 kcal/mol
SAGGSAGGAIAPGEEVEAEVTIVDPLTGKETTAKVTLTVHPTSVTITLPGGKPAVVPAAYVRFGSAGGSAGG [r6_436_TrMRF] |  | -0.535 ± 0.4 kcal/mol | -0.176 ± 0.56 kcal/mol
SAGGMKAKATFKIPKTFVDPKNNSPKISESEITIEREFKSEEEAKEFVEKIKEELPPELTELVSLELESAGG [r19_209_JUSTAS] |  | < -1 kcal/mol | -0.601 ± 0.48 kcal/mol
SAGGSAGGSAGMKLIEFPPGEEFEEFIKNLPGPIKSVERTKIEPEKVLAKIVLELPPSNLSAGGSAGGSAGG [r11_143_JUSTAS] |  | < -1 kcal/mol | -0.545 ± 0.36 kcal/mol
SAGGSAGGSAGPMWRIEVENPNGRTPEIWIPPNMDTPEELVDELKKHFPGLKKVKIEPYPSAGGSAGGSAGG [r11_311_TrROS] |  | -0.391 ± 0.27 kcal/mol | 0.184 ± 0.12 kcal/mol
SAGGSAGGSASYSVTISPEERIEPVVDYKTGERRLVERRRVVVTADPKLSPALKAAILAALSSAGGSAGGSA [r18_438_JUSTAS] |  | -0.237 ± 0.2 kcal/mol | 0.144 ± 0.2 kcal/mol
SAGSVPQLIEDKLQEGSPNSSVEVKPVDTLGGTTVLEVKIERIDTSSGNGKLTSEDKIIEVPAGEELGSAGG [r19_8_JUSTAS] |  | 0.0158 ± 0.086 kcal/mol | 0.467 ± 0.049 kcal/mol
